Here are results for one molecule from patent US10413588B2, “Probiotic function of human intelectin” (Wisconsin Alumni Research Foundation, priority 2015, dated 2019).

The nature of assay [1]: hIntL-1 carbohydrate binding ELISA-like assay. Conditions: ligands other than β-Galf. The protocol:
To fabricate carbohydrate-displaying surfaces, 0.5 μg of streptavidin (Prozyme, cat. no. SA20) was adsorbed onto a Maxisorp (Nunc) flat bottom 96 well plate in PBS. Wells were washed with PBS and then coated with 5 μM of carbohydrate-biotin ligand in PBS for 1 hour at 22° C. Wells were blocked with bovine serum albumin (BSA) in ELISA buffer (20 mM HEPES (7.4) 150 mM NaCl, 10 mM CaCl2, and 0.1% tween-20). Samples containing hIntL-1 were prepared by serial dilution into ELISA buffer+0.1% BSA and added to wells for 2 hours at 22° C. Wells were washed four times with ELISA buffer. Bound hIntL-1 was detected using 0.75 μg/mL of a sheep IgG hIntL-1 antibody (R&D Systems, cat. no. AF4254) in ELISA buffer+0.1% BSA for 2 hours at 22° C. Wells were washed with ELISA buffer. A donkey anti-sheep IgG horseradish peroxidase (HRP) conjugate (Jackson ImmunoResearch Laboratories) was added at a 1:5,000 dilution in ELISA buffer+0.1% BSA for 1 hour at 22° C. Wells were washed and hIntL-1 was detected colorimetrically with addition of 1-Step Ultra TMB-ELISA (Pierce). Once sufficient signal was achieved (typically <2 min.), the reaction was quenched with addition of equal volume 2 M H2SO4. Plates were read at 450 nm on an ELx800 plate reader (Bio-Tek). When testing the Ca^2+ dependency of hIntL-1, 1 mM EDTA replaced 10 mM CaCl2 in all steps. Data were analyzed on Prism6 (GraphPad). […]
Background: In an ELISA, binding on a coated surface is turned into a signal by an enzyme label.

Assay [2] relates to Bacteroides xylanisolvens. Nature of the assay: Flow cytometry binding to microbiome strain. The note with it: fixed cells; 15 μg/mL Strep-tagged-hIntL-1, 10 mM CaCl2 vs EDTA control. The protocol: (§1) The inventors have begun to examine the binding of hIntL-1 to bacteria known to reside in the human intestine. Strains of relevant bacteria were grown anaerobically. The samples are fixed using 1% formaldehyde for 30 min on ice. […] Fixed cells are exposed to Strep-tagged (IBS Lifesciences) -hIntL-1. The Strep-tag not necessary for function but added because it facilitates purification and detection. Cells were analyzed by flow cytometry on a BD FACSCalibur or LSRII. Bacterial cells were identified using either propidium iodide (PI) or DAPI. An anti-Strep-tag antibody conjugated to the fluorophore Oyster 645 nm was used to detect the population of bacteria bound by hIntL-1.
(§2) To determine whether observed binding is dependent on hIntL-1 interaction with microbial glycans, the inventors take advantage of critical role of calcium ions in hIntL-1 binding. The addition of the calcium ion chelator EDTA, which sequesters bound calcium ions, serves as an important specificity control. Fixed bacteria are incubated in 20 mM HEPES (pH 7.2), 150 mM NaCl, 10 mM CaCl2, 15 μg/mL Strep-tagged-hIntL-1, 0.1% bovine serum albumin (BSA), 0.05% Tween-20, 2 μg/mL StrepMAB-Classic conjugated to Oyster 645 (IBA Lifesciences, cat. no.: 2-1555-050). For the cells incubated in the absence of calcium ions, the following solution is used 20 mM HEPES (pH 7.2), 150 mM NaCl, 5 mM EDTA, 15 μg/mL Strep-tagged-hIntL-1, 0.1% bovine serum albumin (BSA), 0.05% tween-20, 2 μg/mL StrepMAB-Classic conjugated to Oyster 645 (IBA Lifesciences, cat. no.: 2-1555-050). Cell samples were analyzed by flow cytometry consecutively using an identical instrument setting. The percentages of unstained cells, cells stained in the presence of calcium ions, and cells stained in the presence of EDTA were directly compared. Increased hIntL-1 binding signal in the presence of calcium ions when compared to unstained cells or the EDTA sample indicates specific binding to the surface glycans of that strain of bacteria. FIG. 17 is representative of the data obtained. A list of bacteria bound by hIntL-1 can be found in Table 1. […]

A further assay has as its system Lactobacillus reuteri. The assay is described as follows: Flow cytometry binding to microbiome strain. Conditions: fixed cells; 15 μg/mL Strep-tagged-hIntL-1, 10 mM CaCl2 vs EDTA control. As to the method: as §1, §2
For orientation: In flow cytometry, cells or beads pass a laser one at a time.

The test system of another assay is Bifidobacterium dentium. Nature of the assay: Flow cytometry binding to microbiome strain. Conditions: fixed cells; 15 μg/mL Strep-tagged-hIntL-1, 10 mM CaCl2 vs EDTA control. The protocol:
as §1, §2

A short description of assay [3]: hIntL-1 surface plasmon resonance (SPR). The format is binding. The protocol:
All hIntL-1 SPR was performed on a ProteOn XPR36 (Bio-Rad) at the University of Wisconsin-Madison Department of Biochemistry Biophysics Instrumentation Facility (BIF). To measure hIntL-1 binding, ProteOn NLC sensor chips (Bio-Rad) (NeutrAvidin coated chips) were used to capture carbohydrate-biotin ligand. All experiments presented here were conducted at surface saturated levels of ligand, ˜200 RU. In all experiments, captured biotin served as a control. Samples containing purified hIntL-1 were prepared by serial dilution into hIntL-1 SPR running buffer (20 mM HEPES (7.4) 150 mM NaCl, 1 mM CaCl2, and 0.005% tween-20). Surfaces were regenerated with short injections of 10 mM HCl. All data was interspot corrected and processed using the Bio-Rad ProteOn software package.
In general terms: In SPR one partner is held on a chip, and binding of the other changes the refractive index at the surface.

B1: hIntL-1: human lectin intelectin-1, accession no. Q8WWA0; recombinant disulfide-linked trimer from HEK 293T cells, used also N-terminally Strep-tagged (Strep-hIntL-1) (protein, listed as Homo sapiens)
chain: MNQLSFLLFLIATTRGWSTDEANTYFKEWTCSSSPSLPRSCKEIKDECPSAFDGLYFLRTENGVIYQTFCDMTSGGGGWTLVASVHENDMRGKCTVGDRWSSQQGSKAVYPEGDGNWANYNTFGSAEAATSDDYKNPGYYDIQAKDLGIWHVPNKSPMQHWRNSSLLRYRTDTGFLQTLGHNLFGIYQKYPVKYGEGKCWTDNGPVIPVVYDFGDAQKTASYYSPYGQREFTAGFVQFRVFNNERAANALCAGMRVTGCNTEHHCIGGGGYFPEASPQQCGDFSGFDWSGYGTHVGYSSSREITEAAVLLFYR
B1: the “binding to other immobilized carbohydrate ligands” value in assay [1] is “not detected”. For the same molecule, in assay [2], the “binding of hIntL-1 to Bacteroides xylanisolvens by flow cytometry” value is given as “not”. For the same molecule, the “binding of hIntL-1 to Lactobacillus reuteri by flow cytometry” value with Lactobacillus reuteri is listed as “binds”. In addition, the “binding of hIntL-1 to Bifidobacterium dentium by flow cytometry” value in the assay with Bifidobacterium dentium was “binds”. For the same molecule, the “SPR response to immobilized β-galactopyranose” value in assay [3] (attributed to the extended anomeric alkyl linker) was “small response”. Further, in assay [3] (immobilized carbohydrate-biotin ligand, 1 mM CaCl2), the “binding to immobilized β-Galf by SPR” value is “robust binding”.
